Data taken from patent US11649275B2, “Dual agonist fusion proteins” (Duke University, priority 2018, dated 2023).

Key:
db/db mice [1] = assay: Chronic dosing study, weekly s.c. for four weeks (GTT, % HbA1c, body weight, food intake); assay type: in vivo
Protocol: (§1) Animals: In vivo studies were conducted in accordance with the AAALAC-accredited Duke Institutional Animal Care and Use Committee. 5-week-old B6.BKS(D)-Lepr^db/J (“db/db”) male mice were purchased from Jackson Laboratory (Bar Harbor, Me.) and maintained on a 12 h/12 h light/dark cycle with ad libitum access to food (LabDiet 5053) and water. Animals were group-housed and allowed 1-week acclimation before stratification into control and treatment groups based on baseline ambient blood glucose levels and body weights.
(§2) ELP fusion treatments: ELP fusion proteins were administered at 150-200 μM concentration via injection into the subcutaneous (s.c.) space on the hind flank. Animals received either a single s.c. injection for short-term studies or weekly s.c. injections for chronic studies. The “1:1 mixture” treatment group received a single injection containing an equimolar mixture of GLP1-ELP and ELP-FGF21, with the indicated dose referring to the dose of each respective fusion in the mixture. Vehicle control refers to PBS.
Food Intake: For food intake studies, animals were group-housed 4 per cage, and food pellets were weighed every 1-2 days. Total cage food intake was calculated for each time increment, averaged per animal, and summed over the course of the study to yield a cumulative food intake per mouse. N=8 treatment groups were divided into 2 cages, allowing for an n=2 food intake standard error calculation.

[2] = molecular target: T1, murine β-Klotho and FGF receptor 1 (Mus musculus, UniProt P16092+Q99N32); assay: ERK phosphorylation assay (FGF21 receptor agonism, HEK293 cells); assay type: cell-based; details: compared to native FGF21
T1 construct: expressed in transfected cells; host or cells: HEK293
T1 sequence (Q99N32 whole entry): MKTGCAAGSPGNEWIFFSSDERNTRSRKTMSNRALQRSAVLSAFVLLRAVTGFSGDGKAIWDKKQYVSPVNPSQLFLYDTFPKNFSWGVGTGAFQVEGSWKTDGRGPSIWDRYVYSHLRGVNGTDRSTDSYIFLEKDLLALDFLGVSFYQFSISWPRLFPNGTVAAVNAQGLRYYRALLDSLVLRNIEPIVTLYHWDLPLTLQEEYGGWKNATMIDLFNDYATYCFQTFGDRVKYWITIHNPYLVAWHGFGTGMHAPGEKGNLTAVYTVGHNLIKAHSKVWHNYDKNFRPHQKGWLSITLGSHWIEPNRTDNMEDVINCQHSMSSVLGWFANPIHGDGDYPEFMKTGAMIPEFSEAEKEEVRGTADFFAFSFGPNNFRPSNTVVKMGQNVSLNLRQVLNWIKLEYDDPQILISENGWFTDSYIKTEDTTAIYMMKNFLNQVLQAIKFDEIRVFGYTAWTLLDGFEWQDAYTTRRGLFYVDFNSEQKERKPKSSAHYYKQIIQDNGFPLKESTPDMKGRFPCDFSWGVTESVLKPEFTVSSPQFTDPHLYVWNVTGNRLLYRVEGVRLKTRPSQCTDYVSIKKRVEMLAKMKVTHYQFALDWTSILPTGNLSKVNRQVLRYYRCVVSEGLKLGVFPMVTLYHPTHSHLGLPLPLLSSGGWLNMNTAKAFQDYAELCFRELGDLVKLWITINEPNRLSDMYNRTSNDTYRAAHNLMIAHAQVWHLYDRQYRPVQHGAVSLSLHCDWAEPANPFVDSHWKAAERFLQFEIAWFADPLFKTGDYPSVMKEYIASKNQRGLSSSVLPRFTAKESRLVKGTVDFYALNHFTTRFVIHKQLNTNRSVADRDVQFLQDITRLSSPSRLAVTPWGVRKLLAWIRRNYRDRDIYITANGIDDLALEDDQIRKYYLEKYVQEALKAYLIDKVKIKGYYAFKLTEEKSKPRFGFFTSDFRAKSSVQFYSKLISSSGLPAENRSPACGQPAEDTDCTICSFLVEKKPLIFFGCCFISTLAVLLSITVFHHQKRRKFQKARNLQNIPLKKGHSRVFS
T1 sequence (P16092 22-822): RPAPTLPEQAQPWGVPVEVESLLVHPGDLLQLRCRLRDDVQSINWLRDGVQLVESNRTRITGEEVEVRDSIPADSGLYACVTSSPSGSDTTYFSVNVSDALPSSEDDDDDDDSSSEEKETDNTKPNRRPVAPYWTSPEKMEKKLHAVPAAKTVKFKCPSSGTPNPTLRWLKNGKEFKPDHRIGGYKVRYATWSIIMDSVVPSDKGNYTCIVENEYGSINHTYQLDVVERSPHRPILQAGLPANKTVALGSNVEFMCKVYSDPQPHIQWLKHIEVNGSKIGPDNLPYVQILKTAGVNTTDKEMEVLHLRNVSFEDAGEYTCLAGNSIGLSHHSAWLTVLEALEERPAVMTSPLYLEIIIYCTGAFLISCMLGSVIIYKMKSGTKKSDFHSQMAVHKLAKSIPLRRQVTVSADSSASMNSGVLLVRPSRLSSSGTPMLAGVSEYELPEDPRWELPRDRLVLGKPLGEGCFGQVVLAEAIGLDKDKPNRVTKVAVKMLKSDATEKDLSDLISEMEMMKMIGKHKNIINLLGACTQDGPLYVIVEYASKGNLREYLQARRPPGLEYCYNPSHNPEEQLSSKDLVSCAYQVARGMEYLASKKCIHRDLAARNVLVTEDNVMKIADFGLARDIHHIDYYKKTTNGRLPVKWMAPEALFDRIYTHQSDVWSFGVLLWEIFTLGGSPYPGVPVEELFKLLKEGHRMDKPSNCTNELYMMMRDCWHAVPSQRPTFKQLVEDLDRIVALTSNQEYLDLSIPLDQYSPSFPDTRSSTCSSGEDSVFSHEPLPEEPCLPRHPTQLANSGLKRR
Protocol: ERK phosphorylation assay: For quantitative evaluation of FGF21 in vitro activity, a HEK293 cell line was previously generated that stably expresses murine β-Klotho and FGF receptor 1 and thereby enables FGF21-mediated ERK1/2 phosphorylation. Cells were seeded at 5×10^4 cells/cm^2 and adhered overnight. After serum starvation for 6 h, cells were treated with serial dilutions of FGF21-containing fusion proteins or native mouse FGF21 (ProSpec-Tany, East Brunswick, N.J.) for 5 min. Cells were lysed and assessed for phospho-ERK1/2 and total ERK1/2 content using the AlphaLISA Surefire Ultra Assay Kits (PerkinElmer) and the EnSpire Alpha Plate Reader (PerkinElmer). Phospho-ERK1/2 was normalized to total ERK1/2 and fit to a three-parameter dose-response curve to determine EC50s using GraphPad Prism 8 software (La Jolla, Calif.).

db/db mice [3] = assay: Short-term co-treatment pilot study, 48 h after single s.c. injection; assay type: in vivo; details: 48 h post-injection, 1000 nmol/kg s.c.
Protocol: as §1, §2
Ambient blood glucose measurements: Blood glucose levels were measured from a tail vein puncture with an AlphaTRAK 2 Blood Glucose Meter (Zoetis, Parsippany-Troy Hills, N.J.) every 24 h, 1-2 h following onset of the light cycle. […] Areas under the curve (AUCs) were calculated with GraphPad Prism 8 software using the trapezoidal rule and setting a Y=0 baseline. […]

[4] = Pharmacokinetic study of radiolabeled ELP fusion depots after s.c. injection; assay type: in vivo, mice; details: component of 1:1 mixed depot, 1000 nmol/kg each
Protocol: Pharmacokinetic studies: Tyrosine residues on GLP1-ELP, ELP-FGF21, or GLP1-ELP-FGF21 fusion proteins were reacted with Na^125I radionuclide (Perkin Elmer) using Pierce Pre-Coated Iodination Tubes (Thermo Fisher Scientific) and the indirect method for iodination. Radiolabeled protein was purified from unreacted radionuclide with Zeba Spin Desalting Columns (Thermo Fisher Scientific). Activities of radiolabeled constructs were measured with an Atomlab 400 Dose Calibrator (Biodex, Shirley, N.Y.) and correlated to protein concentration. Mice received a single s.c. injection of radiolabeled fusion, and 10 μL blood samples were collected at frequent time points from the tail vein and stored at room temperature until radioactivity quantification. Sample counts were measured at the end of the study on a Wallac Wizard 1480 Automatic Gamma Counter (Perkin Elmer). An activity vs. count standard curve was used to convert sample counts to activities, and subsequently to moles of drug.
Pharmacokinetic analysis: The maximum serum concentration (Cmax) was recorded as observed, as well as time to reach Cmax (tmax). […] Absorption half-life (t1/2, abs) was estimated from the slope of the linear regression curve. When a drug administered at an extravascular site yields a terminal half-life greater than that resulting from an i.v. bolus, the terminal half-life reflects the absorption half-life.

B1: ELP-FGF21: Single agonist control: ELP (120 repeats, 4:1 Val:Ala) fused to mutated murine FGF21; SEQ ID NO:14 (protein)
chain: GVGVPGVGVPGAGVPGVGVPGVGVPGVGVPGVGVPGAGVPGVGVPGVGVPGVGVPGVGVPGAGVPGVGVPGVGVPGVGVPGVGVPGAGVPGVGVPGVGVPGVGVPGVGVPGAGVPGVGVPGVGVPGVGVPGVGVPGAGVPGVGVPGVGVPGVGVPGVGVPGAGVPGVGVPGVGVPGVGVPGVGVPGAGVPGVGVPGVGVPGVGVPGVGVPGAGVPGVGVPGVGVPGVGVPGVGVPGAGVPGVGVPGVGVPGVGVPGVGVPGAGVPGVGVPGVGVPGVGVPGVGVPGAGVPGVGVPGVGVPGVGVPGVGVPGAGVPGVGVPGVGVPGVGVPGVGVPGAGVPGVGVPGVGVPGVGVPGVGVPGAGVPGVGVPGVGVPGVGVPGVGVPGAGVPGVGVPGVGVPGVGVPGVGVPGAGVPGVGVPGVGVPGVGVPGVGVPGAGVPGVGVPGVGVPGVGVPGVGVPGAGVPGVGVPGVGVPGVGVPGVGVPGAGVPGVGVPGVGVPGVGVPGVGVPGAGVPGVGVPGVGVPGVGVPGVGVPGAGVPGVGVPGVGVPGVGVPGVGVPGAGVPGVGVPGVGVPGVGVPGVGVPGAGVPGVGVPGVGVPGAYPIPDSSPLLQFGGQVRQRYLYTDDDQDTEAHLEIREDGTVVGAAHRSPESLLELKALKPGVIQILGVKASRFLCQQPDGALYGSPHFDPEACSFRERLLEDGYNVYQSEAHGLPLRLPQKDSPNQDATSWGPVRFLPMPGLLHEPQDQAGFLPPEPPDVGSSDPLSMVEGSQGRSPSYASG
In the case of B1, the “fasting blood glucose levels” value (db/db mice [1]; 5 h fast, 3 days after the first dosing cycle, 1000 nmol/kg s.c.) is reported as 237 ± 21 mg/dL, the “% HbA1c elevation relative to control” value (db/db mice [1]; four-week study) is reported as “significantly reduced % HbA1c elevation relative to control” and the “effect on body weight / weight gain compared to vehicle” value (db/db mice [1]; four-week treatment period) is reported as “did not induce a significant effect on body weight”. For the same molecule, the “GTT AUC” value (db/db mice [1]; i.p. glucose tolerance test 3 days after the first dosing cycle) was “significantly decreased GTT AUC compared to vehicle”, the fasting plasma insulin (db/db mice [1]; prior to glucose challenge, 3 days after the first dosing cycle) was “equivalent levels of fasting plasma insulin” and the “increase in FGF21 receptor EC50 on fusion of FGF21 to an ELP” value [2] was “approximately twenty-fold”. For the same molecule, the “body weight, % change from pre-injection weight” value (db/db mice [3]) was −0.9±0.3% and the “day by which plasma levels dropped below 100 nM” value [4] was ≤ 4 days.
